What was measured:
[1] = molecular target: recombinant human PDGF-BB (human, UniProt P01127 82-190); assay: cell-based or functional assay
[2] = molecular target: recombinant human VEGF165 (human, UniProt P15692 207-395); assay: cell-based or functional assay
recombinant human VEGF165, sequence (P15692 other isoform, or with tags, fused parts or gaps limits assumed): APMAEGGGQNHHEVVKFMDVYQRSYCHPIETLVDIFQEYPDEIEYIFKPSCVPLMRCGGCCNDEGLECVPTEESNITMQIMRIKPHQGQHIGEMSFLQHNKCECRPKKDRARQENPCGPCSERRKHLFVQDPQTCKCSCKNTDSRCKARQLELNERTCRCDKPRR

recombinant human PDGF-BB, sequence (P01127 82-190 limits assumed): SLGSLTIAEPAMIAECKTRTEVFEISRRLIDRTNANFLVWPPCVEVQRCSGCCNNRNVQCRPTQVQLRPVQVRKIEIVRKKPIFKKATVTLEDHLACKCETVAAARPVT

Binder | Potency IC50 (nM), NIH-3T3 hPDGF-BB (proliferation) [1] | Potency IC50 (nM), HMVEC-d hVEGF165 (proliferation) [2]
3E2.1_GS_9E10.1 (PR-1612500) (bispecific antibody, human IgG1, kappa, L234A L235A) heavy: EVQLVQSGAEVKKPGSSVKVSCKASGYTFTESYMYWVKQAPGQGLELIGRIDPEDGSTDYVEKFKNKATLTADKSTSTAYMELSSLRSEDTAVYFCARFGARSYFYPMDAWGQGTTVTVSSGGGGSGGGGSEIQLVQSGSELKKPGASVKVSCKASGYTFTNYGMYWVKQAPGQGLEYMGWIDTETGRPTYADDFKGRFVFSLDTSVSTAYLQISSLKAEDTAVYFCARWSGDTTGIRGPWFAYWGQGTLVTVSSASTKGPSVFPLAPSSKSTSGGTAALGCLVKDYFPEPVTVSWNSGALTSGVHTFPAVLQSSGLYSLSSVVTVPSSSLGTQTYICNVNHKPSNTKVDKKVEPKSCDKTHTCPPCPAPEAAGGPSVFLFPPKPKDTLMISRTPEVTCVVVDVSHEDPEVKFNWYVDGVEVHNAKTKPREEQYNSTYRVVSVLTVLHQDWLNGKEYKCKVSNKALPAPIEKTISKAKGQPREPQVYTLPPSREEMTKNQVSLTCLVKGFYPSDIAVEWESNGQPENNYKTTPPVLDSDGSFFLYSKLTVDKSRWQQGNVFSCSVMHEALHNAYTQKSLSLSPGK light: ETVLTQSPATLSLSPGERATLSCRASESVSTLMHWYQQKPGQQPRLLIYGASNLESGVPARFSGSGSGTDFTLTISSLEPEDFAVYFCQQSWNDPWTFGGGTKVEIKGGSGGGGSGGDIRMTQSPSSLSASVGDRVTIECLASEDIYSDLAWYQQKPGKSPKLLIYNANGLQNGVPSRFSGSGSGTDYSLTISSLQPEDVATYFCQQYNYFPGTFGQGTKLEIKRTVAAPSVFIFPPSDEQLKSGTASVVCLLNNFYPREAKVQWKVDNALQSGNSQESVTEQDSKDSTYSLSSTLTLSKADYEKHKVYACEVTHQGLSSPVTKSFNRGEC | 0.394 nM | 0.133 nM
3E2.1_GS_9E10.6 (PR-1612501) (bispecific antibody, human IgG1, kappa, L234A L235A) heavy: EVQLVQSGAEVKKPGSSVKVSCKASGYTFTESYMYWVKQAPGQGLELIGRIDPEDGSTDYVEKFKNKATLTADKSTSTAYMELSSLRSEDTAVYFCARFGARSYFYPMDAWGQGTTVTVSSGGGGSGGGGSEVQLVQSGAEVKKPGSSVKVSCKASGYTFTNYGMYWVRQAPGQGLEWMGWIDTETGRPTYADDFKGRFTFTADKSTSTAYMELSSLRSEDTAVYYCARWSGDTTGIRGPWFAYWGQGTLVTVSSASTKGPSVFPLAPSSKSTSGGTAALGCLVKDYFPEPVTVSWNSGALTSGVHTFPAVLQSSGLYSLSSVVTVPSSSLGTQTYICNVNHKPSNTKVDKKVEPKSCDKTHTCPPCPAPEAAGGPSVFLFPPKPKDTLMISRTPEVTCVVVDVSHEDPEVKFNWYVDGVEVHNAKTKPREEQYNSTYRVVSVLTVLHQDWLNGKEYKCKVSNKALPAPIEKTISKAKGQPREPQVYTLPPSREEMTKNQVSLTCLVKGFYPSDIAVEWESNGQPENNYKTTPPVLDSDGSFFLYSKLTVDKSRWQQGNVFSCSVMHEALHNAYTQKSLSLSPGK light: ETVLTQSPATLSLSPGERATLSCRASESVSTLMHWYQQKPGQQPRLLIYGASNLESGVPARFSGSGSGTDFTLTISSLEPEDFAVYFCQQSWNDPWTFGGGTKVEIKGGSGGGGSGGDIRMTQSPSSLSASVGDRVTITCLASEDIYSDLAWYQQKPGKSPKLLIYNANGLQNGVPSRFSGSGSGTDYTLTISSLQPEDVATYFCQQYNYFPGTFGQGTKLEIKRTVAAPSVFIFPPSDEQLKSGTASVVCLLNNFYPREAKVQWKVDNALQSGNSQESVTEQDSKDSTYSLSSTLTLSKADYEKHKVYACEVTHQGLSSPVTKSFNRGEC | 0.377 nM | 0.188 nM
